According to PMC12442378, “SmsB-SmsC machinery in Thermococcus kodakarensis functions as an archaeal scaffold mediating Fe-S cluster assembly” (Applied and Environmental Microbiology, 2025):

B2: Tk-SmsB (TK0730 protein) with a 6x His tag at its N-terminus (natural protein, Thermococcus kodakarensis, UniProt Q5JG67 1-446, looked up)
chain: MTETITMADAKAIIENQIEELARRNKEPEWMTKIRYKALEAFERAPHKDPVISEEQLLHFIAKPEVKGLPDHIESLDDLPPEMKALLDRLGISEVEQKYIAGLAVQTDTGVIYNQFLQDWAKKGLIVLPTEEAVRKYPDIVKQHFLKLFRADESKLTAYHTAVWNGGIFLYVKEGLKVPFPLHLFFLIQESALAQAPHIIIIAERNTEFHLIEGCTAPILLKHSLHLDMTEAYFHEGAKAQLTVLQNWPEYVHTRPMTRAKVGRGARFINTTVTLGSGKSNIGDPHYWVEEGGHVELNGIILGQKDFYVDLGGRMFLQGPGASGINASKAVIMDESTVVTRGIIEADAPKTKGHISCDALLMSDKAVMETYPGLISRVDDAELSHEAAIGKIREEELFYLMSRGLDEEKATQLIVKGFLDPMLKDIPMEFLVEIRKIIELAVSGGM
notes: SmsB (SufB homolog) of Thermococcus kodakarensis, locus TK0730; coding region amplified from genomic DNA of strain KU216; theoretical monomer mass 50.8 kDa including the His tag; Homodimer by gel filtration.); not shown: His6, N-terminal, kept

Tests used:
[1] = target: B2; assay: cell-based or functional assay
[2] = target: B2; assay: SEC; Superdex 200 Increase 10/300 GL; 50 mM HEPES pH 7.5, 0.15 M NaCl; Tk-SmsB 40 uM alone, Tk-SmsC 72 uM alone, or mixture of 40 uM each; peak fraction analysed by SDS-PAGE and band densitometry; settings: both partners purified
[3] = target: the molecule itself; assay: as above
[4] = target: the molecule itself; assay: SEC; gel filtration of Tk-CSD alone and of its mixtures with Tk-SmsB, Tk-SmsC or both, 30 uM of each protein; fractions analysed by SDS-PAGE

B1: Tk-SmsC (TK0731 protein), recombinant (enzyme, Thermococcus kodakarensis, UniProt Q5JG66 1-246, looked up)
chain: MLKVENLHVSVEDKEILRGVDLEVNPGEFHVIMGPNGSGKSTLALTIAGHPKYRVTDGKILFEGEDITELGPDERAKRGILLAFQVPPEVEGVKVIEFLQQVLVELKGMDPAEAYDLVVEKAKELWFKEEDLHRYVNVGFSGGERKRLELLQALLIEPKLLILDEPDSGVDVDSLSIISRKIEELHQRGTAILLITHYGRILGHLDREKLTVHVMKDGRIVKTGSGELVDQIDREGFARIFEEVGA
notes: SmsC (SufC homolog, ABC-type ATPase) of Thermococcus kodakarensis, locus TK0731; coding region amplified from genomic DNA of strain KU216; theoretical mass 27.5 kDa; Cloned NdeI-BamHI into pET-21a(+); Monomer by gel filtration; source: E. coli BL21-CodonPlus(DE3)-RIL (pET0731), purified (heat treatment, anion exchange, gel filtration)
With B1 the “kcat/Km of ATP hydrolysis, Tk-SmsB2C2 (Tk-SmsC alone 4.4 × 10^2)” value [1] was 4600 M⁻¹ s⁻¹, the “density ratio of the Tk-SmsB band to the Tk-SmsC band (SDS-PAGE of peak Pm)” value [2] was 1.13 and the “stoichiometry N” value [2] was 1 Tk-SmsC per Tk-SmsB (printed as 2:2).

For B2, the “stoichiometry N” value [3] was 2.

B3: Tk-CSD (cysteine desulfurase of T. kodakarensis, TK1990 protein) (enzyme, Thermococcus kodakarensis, UniProt Q5JIJ0 1-399, looked up)
chain: MKIPDDIRKDIPLTSEVIYFDNTATSLTPKPVIEAMDEYYLKYRANVHRGVHRLSQIATHKYEESRKVVADFINAKFEEIVFTKNTSESLNLVALGLEHIFEKGDKIVTTPYEHHSDLLPWQRLAKKKGLRLEFIEGDLEGNLDLADAEKKIKGAKLVAVQHVSNALGVIHEVEELGKMAKEEGAIFVVDAAQSAGHMEVDVKKLYADFLGFSGHKGPMGPTGIGVLYINSEFFDVFEPPLIGGGTIEDVDLDSYKLAEPPERFEAGTPNIGGAIGLAAGIRYIERIGIEKIEKQEHKLVKRTTEGLDELEVPWYGPRNLKKHAGVVSFNVPPLHPHDVAAILDEHNIMVRSGHHCALPAMKKLGVEGTVRASFHVYNSVEEVETFLSVMENLIRGLRG
notes: cysteine desulfurase (SufS homolog) of Thermococcus kodakarensis, locus TK1990; coding region amplified from genomic DNA of strain KU216; theoretical monomer mass 44.4 kDa; Cloned NheI-EcoRI into pET-21a(+); Homodimer by gel filtration; source: E. coli BL21-CodonPlus(DE3)-RIL (pET1990), purified (heat treatment, anion exchange, gel filtration)
For B3, the “stoichiometry N” value [4] was 2.
